The target of data set [1] is human serum albumin (HSA) (Homo sapiens, UniProt P02768). The following applies: for b value of Equation (I) (dissociation mode: b<0.241 single, b≥0.241 multiple) / Δλ (maximum layer thickness change amount, second information): peptide concentration per Table 5.
The conditions of data set [2]: cited from earlier work; for Isoelectric point: Table 5; for Isoelectric point pI: Table 1.

Where two headings read alike, the source gives them in different places. Peptide text beside a SMILES is read from it.

With `NC(N)=NCCC[C@H](NC(=O)[C@H](Cc1ccccc1)NC(=O)[C@@H]1CCCN1C(=O)[C@H](CO)NC(=O)[C@H](Cc1ccccc1)NC(=O)CNC(=O)[C@@H]1CCCN1C(=O)[C@@H]1CCCN1C(=O)[C@@H](N)CCCN=C(N)N)C(=O)O` [Bradykinin] (H-RPPGFSPFR-OH), the “Koff (dissociation rate constant, first information)” value (“Koff” for short) in data set [1] (pH 6.9) amounted to 0.01721 s⁻¹.
As for (His) 3: HHH, in data set [1] (HSA sensor chip), the “b value of Equation (I) (dissociation mode: b<0.241 single, b≥0.241 multiple)” value (from here on “b value of Equation (I)”) turned out to be 0.344 and the “Δλ (maximum layer thickness change amount, second information)” value stood at 0.027 nm. Moreover, the “Koff” value in data set [1] (pH 6.9) was 0.00257 s⁻¹. Also, in data set [2], the Isoelectric point is 7.
Turning to “ACTH15: SEQ ID NO: 11, YSMEHFRWGKPVGKK (listed as Homo sapiens)”, in data set [1] (pH 6.9), the “Koff” value came out at 0.01147 s⁻¹. In addition, in data set [2], the “Isoelectric point pI” value is reported as 10 and the Isoelectric point is reported as 10.
As for “ACTH partial peptide at the 1-24 positions [ACTH24]”, the “Isoelectric point pI” value in data set [2] is 10.6.
As to “ACTH partial peptide at the 1-39 positions (SYSMEHFRWGKPVGKKRRPVKVYPNAGENESAEAFPLEF; listed as Homo sapiens) [ACTH39]”, in data set [1] (HSA sensor chip, peptide map FIG. 6, peptide 2 μM), the “dissociation mode (third information)” value is recorded as “multiple dissociation mode”. In addition, the “Isoelectric point pI” value in data set [2] is listed as 9.3.
With “ACTH partial peptide at the 1-41 positions (GPSYSMEHFRWGKPVGKKRRPVKVYPNGAEDESAEAFPLEF; listed as Homo sapiens) [ACTH41]”, in data set [2], the “Isoelectric point pI” value was 8.3.
Consider Amyloid β40 peptide [AB40], for which, in data set [2], the “Isoelectric point pI” value is 5.3 and the Isoelectric point is reported as 5.3.
As for “ELN 11mer: the 548 to 558th fragments of the amino acid sequence of elastin; SEQ ID NO: 20, GVPGLGVGAGV (listed as Homo sapiens)”, in data set [1] (HSA sensor chip), the “b value of Equation (I)” value turned out to be 0 and the “Δλ (maximum layer thickness change amount, second information)” value is reported as 0.043 nm. Besides, in data set [1] (pH 6.9), the “Koff” value is 0.00016 s⁻¹. Besides, the Isoelectric point in data set [2] is given as 5.5.
Consider “His-decapeptide (HHHHHHHHHH; Synthetic His decapeptide) [(His) 10]”, for which the “Koff” value in data set [1] (pH 6.9) came out at 0.00073 s⁻¹. Moreover, the Isoelectric point in data set [2] is listed as 7.4.
For the molecule “IS 13mer: the 237 to 249th fragments of the amino acid sequence of HSA; SEQ ID NO: 21, AWAVARLSQRFPK (listed as Homo sapiens)”, in data set [1] (HSA sensor chip), the “b value of Equation (I)” value worked out at 0.756 and the “Δλ (maximum layer thickness change amount, second information)” value came out at 0.061 nm. Moreover, the “Koff” value in data set [1] (pH 6.9) amounted to 0.01708 s⁻¹. Further, in data set [2], the Isoelectric point is listed as 12.
Regarding “Lys-decapeptide (KKKKKKKKKK; Synthetic Lys decapeptide) [(Lys) 10]”, in data set [1] (HSA sensor chip), the “b value of Equation (I)” value is 0.669 and the “Δλ (maximum layer thickness change amount, second information)” value came to 0.045 nm. In data set [1] (pH 6.9), the “Koff” value came to 0.0002 s⁻¹. Besides, the Isoelectric point in data set [2] is 11.
For amyloid β42 peptide [AB42], in data set [2], the “Isoelectric point pI” value is reported as 5.3 and the Isoelectric point is recorded as 5.3.
On to arginine decapeptide [(Arg) 10], for which, in data set [2], the “Isoelectric point pI” value is 13.
As for brain natriuretic peptide [BNP], in data set [2], the “Isoelectric point pI” value is on record as 11.
As for “dynorphin A (YGGFLRRIRPKLK; listed as Homo sapiens)”, in data set [1] (HSA sensor chip, peptide concentration during measurement per Table 5 (1-1000 μM), 0.1 M sodium phosphate buffer pH 6.9), the “Koff” value worked out at 0.00617 s⁻¹. Further, in data set [2], the “Isoelectric point pI” value is on record as 11.7 and the Isoelectric point is on record as 11.7.
On to “fibrinogen α (DEAGSEADHEGTHSTKRGHAKSRPV; listed as Homo sapiens)”, for which, in data set [2], the “Isoelectric point pI” value is recorded as 6.3.
Take glucagon: the “Isoelectric point pI” value in data set [2] was 6.8.
Regarding “histidine eicosa peptide (HHHHHHHHHHHHHHHHHHHH; Synthetic His eicosapeptide) [(His) 20]”, the “Isoelectric point pI” value in data set [2] is 7.6.
As to “inter-α-trypsin inhibitor heavy chain 4 (GESRNRNVHSGSTFFKYYLQGAKIPKPEASFS; listed as Homo sapiens) [ITIH4]”, the “Isoelectric point pI” value in data set [2] was 9.8.
On to “kininogen (HNLGHGHKHERDQGHGHQR; listed as Homo sapiens)”, for which, in data set [1] (HSA sensor chip), the “b value of Equation (I)” value stood at 1.093 and the “Δλ (maximum layer thickness change amount, second information)” value amounted to 0.082 nm. Further, the “Koff” value in data set [1] (pH 6.9) was 0.00493 s⁻¹. In addition, in data set [2], the “Isoelectric point pI” value was 8.8 and the Isoelectric point is given as 8.8.

B1: Lysozyme (protein, listed as Homo sapiens)
chain: KVYGRCELAAAMKRLGLDNFRGYSLGNWVCAAKFESNFNTHATNRNTDGSTDYGILQINSRWWCNDGRTPGSRNLCNIPCSALLSSDTIASVNCAKKIVSDGNGMNAWVAWRKRCKGTDVNAWTRGCRL
B1: in data set [1] (HSA sensor chip), the “b value of Equation (I)” value is given as 0.278 and the “Δλ (maximum layer thickness change amount, second information)” value amounted to 0.12 nm. Besides, in data set [1] (pH 6.9), the “Koff” value was determined as 0.0066 s⁻¹. For the same molecule, the Isoelectric point in data set [2] is 9.4.

Values taken from patent US10976314B2, “Device, non-transitory computer-readable storage medium, and method for determining type of target peptide” (SYSMEX CORPORATION, priority 2014, dated 2021).
